As a reminder, the koff is a measure of how fast the partners let go of each other. The low end stands for slow dissociation, the high end for fast dissociation.

T1: human IL-12 (human, UniProt P29459 23-219; P29460 23-328)
T1 construct: recombinant human IL-12 heterodimer (p35/p40, disulfide-linked); also called hIL-12; rhIL-12
T1 sequence (looked up) 1: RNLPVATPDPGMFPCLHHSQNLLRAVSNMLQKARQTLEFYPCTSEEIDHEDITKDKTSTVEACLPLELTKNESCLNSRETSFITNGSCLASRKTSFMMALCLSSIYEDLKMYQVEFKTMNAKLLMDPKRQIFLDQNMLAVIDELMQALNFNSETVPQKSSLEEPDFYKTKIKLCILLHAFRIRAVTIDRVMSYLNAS
T1 sequence (looked up) 2: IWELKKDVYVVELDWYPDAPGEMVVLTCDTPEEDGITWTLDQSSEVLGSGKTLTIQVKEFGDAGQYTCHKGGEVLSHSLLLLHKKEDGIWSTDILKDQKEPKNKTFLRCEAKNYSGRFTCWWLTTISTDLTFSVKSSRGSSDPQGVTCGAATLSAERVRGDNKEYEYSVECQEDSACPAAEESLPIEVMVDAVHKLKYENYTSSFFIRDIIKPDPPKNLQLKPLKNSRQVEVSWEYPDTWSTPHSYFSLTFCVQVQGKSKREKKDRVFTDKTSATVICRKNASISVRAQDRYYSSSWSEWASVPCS

B1: 31-A6 (scFv, V domains shown)
VH: QVQLVQSGGGVVQPGRSLRLSCAASGFTFSSYGMHWVRQAPGKGLEWVAFIRYDGSNKYYADSVKGRFTISRDNSKNTLYLQMKSLRAEDTAVYYCKTHGSHDNWGQGTMVTVSS
VL: SYVLTQPPSVSGTPGQRVTISCSGGRSNIGSNTVKWYQQLPGTAPKLLIYGNDQRPSGVPDRFSGSKSGTSASLAITGVQAEDEADYYCQSYDRGTHPNLNFGTGTKVTVL
notes: scFv
B2: 103-1 (scFv, V domains shown)
VH: QVQLVQSGGGVVQPGRSLRLSCAASGFTFSSYGMHWVRQAPGKGLEWVAFIRYDGSNKYYADSVKGRFTISRDNSKNTLYLQMKSLRAEDTAVYYCTTQGRHDNWGQGTMVTVSS
VL: SYVLTQPPSVSGTPGQRVTISCSGGRSNIGSNTVKWYQQLPGTAPKLLIYGNDQRPSGVPDRFSGSKSGTSASLAITGVQAEDEADYYCQSYDRGFTGSRVFGTGTKVTVL
notes: scFv
B3: 101-5 (scFv, V domains shown)
VH: QVQLVQSGGGVVQPGRSLRLSCAASGFTFSSYGMHWVRQAPGKGLEWVAFIRYDGSNKYYADSVKGRFTISRDNSKNTLYLQMKSLRAEDTAVYYCTTSGSIDYWGQGTMVTVSS
VL: SYVLTQPPSVSGTPGQRVTISCSGGRSNIGSNTVKWYQQLPGTAPKLLIYGNDQRPSGVPDRFSGSKSGTSASLAITGVQAEDEADYYCQSYDSSLTGSRVFGTGTKVTVL
notes: scFv
B4: 70-2 (scFv, V domains shown)
VH: QVQLVQSGGGVVQPGRSLRLSCAASGFTFSSYGMHWVRQAPGKGLEWVAFIRYDGSNKYYADSVKGRFTISRDNSKNTLYLQMKSLRAEDTAVYYCTTHGSYDYWGQGTMVTVSS
VL: SYVLTQPPSVSGTPGQRVTISCSGGRSNIGSNTVKWYQQLPGTAPKLLIYGNDQRPSGVPDRFSGSKSGTSASLAITGVQAEDEADYYCQSYDSSLRGSRVFGTGTKVTVL
notes: scFv
B5: 101-14 (scFv, V domains shown)
VH: QVQLVQSGGGVVQPGRSLRLSCAASGFTFSSYGMHWVRQAPGKGLEWVAFIRYDGSNKYYADSVKGRFTISRDNSKNTLYLQMKSLRAEDTAVYYCTTHGSYDYWGQGTMVTVSS
VL: SYVLTQPPSVSGTPGQRVTISCSGGRSNIGSNTVKWYQQLPGTAPKLLIYGNDQRPSGVPDRFSGSKSGTSASLAITGVQAEDEADYYCQSYDRGFTGSRVFGTGTKVTVL
notes: scFv
B6: 101-4 (scFv, V domains shown)
VH: QVQLVQSGGGVVQPGRSLRLSCAASGFTFSSYGMHWVRQAPGKGLEWVAFIRYDGSNKYYADSVKGRFTISRDNSKNTLYLQMKSLRAEDTAVYYCTTSGSIDYWGQGTMVTVSS
VL: SYVLTQPPSVSGTPGQRVTISCSGGRSNIGSNTVKWYQQLPGTAPKLLIYGNDQRPSGVPDRFSGSKSGTSASLAITGVQAEDEADYYCQSYDSSLTGSRVFGTGTKVTVL
notes: scFv
B7: 70-13 (scFv, V domains shown)
VH: QVQLVQSGGGVVQPGRSLRLSCAASGFTFSSYGMHWVRQAPGKGLEWVAFIRYDGSNKYYADSVKGRFTISRDNSKNTLYLQMKSLRAEDTAVYYCTTSGSIDYWGQGTMVTVSS
VL: SYVLTQPPSVSGTPGQRVTISCSGGRSNIGSNTVKWYQQLPGTAPKLLIYGNDQRPSGVPDRFSGSKSGTSASLAITGVQAEDEADYYCQSYDSSLRGSRVFGTGTKVTVL
notes: scFv
B8: 31-B5 (scFv, V domains shown)
VH: QVQLVQSGGGVVQPGRSLRLSCAASGFTFSSYGMHWVRQAPGKGLEWVAFIRYDGSNKYYADSVKGRFTISRDNSKNTLYLQMKSLRAEDTAVYYCKTHGSHDNWGQGTMVTVSS
VL: SYVLTQPPSVSGTPGQRVTISCSGGRSNIGSNTVKWYQQLPGTAPKLLIYGNDQRPSGVPDRFSGSKSGTSASLAITGVQAEDEADYYCQSYDRGTHPSISFGTGTKVTVL
notes: scFv
B9: 144-F1 (scFv, V domains shown)
VH: QVQLVQSGGGVVQPGRSLRLSCAASGFTFSSYGMHWVRQAPGKGLEWVAFIRYDGSNKYYADSVKGRFTISRDNSKNTLYLQMKSLRAEDTAVYYCKTHGSHDNWGQGTMVTVSS
VL: SYVLTQPPSVSGTPGQRVTISCSGGRSNIGSNTVKWYQQLPGTAPKLLIYGNDQRPSGVPDRFSGSKSGTSASLAITGVQAEDEADYYCQSYDRGHHYTTFFGTGTKVTVL
notes: scFv
B10: 70-7 (scFv, V domains shown)
VH: QVQLVQSGGGVVQPGRSLRLSCAASGFTFSSYGMHWVRQAPGKGLEWVAFIRYDGSNKYYADSVKGRFTISRDNSKNTLYLQMKSLRAEDTAVYYCTTRRRSNYWGQGTMVTVSS
VL: SYVLTQPPSVSGTPGQRVTISCSGGRSNIGSNTVKWYQQLPGTAPKLLIYGNDQRPSGVPDRFSGSKSGTSASLAITGVQAEDEADYYCQSYDSSLRGSRVFGTGTKVTVL
notes: scFv
B11: 43-G2 (scFv, V domains shown)
VH: QVQLVQSGGGVVQPGRSLRLSCAASGFTFSSYGMHWVRQAPGKGLEWVAFIRYDGSNKYYADSVKGRFTISRDNSKNTLYLQMKSLRAEDTAVYYCKTHGSHDNWGQGTMVTVSS
VL: SYVLTQPPSVSGTPGQRVTISCSGGRSNIGSNTVKWYQQLPGTAPKLLIYGNDQRPSGVPDRFSGSKSGTSASLAITGVQAEDEADYYCQSYDRGSSPAIMFGTGTKVTVL
notes: scFv
B12: 101-9 (scFv, V domains shown)
VH: QVQLVQSGGGVVQPGRSLRLSCAASGFTFSSYGMHWVRQAPGKGLEWVAFIRYDGSNKYYADSVKGRFTISRDNSKNTLYLQMKSLRAEDTAVYYCTTHGSYDYWGQGTMVTVSS
VL: SYVLTQPPSVSGTPGQRVTISCSGGRSNIGSNTVKWYQQLPGTAPKLLIYGNDQRPSGVPDRFSGSKSGTSASLAITGVQAEDEADYYCQSYDSSLTGSRVFGTGTKVTVL
notes: scFv
B13: 156-1 (scFv, V domains shown)
VH: QVQLVQSGGGVVQPGRSLRLSCAASGFTFSSYGMHWVRQAPGKGLEWVAFIRYDGSNKYYADSVKGRFTISRDNSKNTLYLQMKSLRAEDTAVYYCTTHGSHDTWGQGTMVTVSS
VL: SYVLTQPPSVSGTPGQRVTISCSGGRSNIGSNTVKWYQQLPGTAPKLLIYGNDQRPSGVPDRFSGSKSGTSASLAITGVQAEDEADYYCQSYDRDFTGSRVFGTGTKVTVL
notes: scFv
B14: 156-3 (scFv, V domains shown)
VH: QVQLVQSGGGVVQPGRSLRLSCAASGFTFSSYGMHWVRQAPGKGLEWVAFIRYDGSNKYYADSVKGRFTISRDNSKNTLYLQMKSLRAEDTAVYYCTTHGSHDTWGQGTMVTVSS
VL: SYVLTQPPSVSGTPGQRVTISCSGGRSNIGSNTVKWYQQLPGTAPKLLIYGNDQRPSGVPDRFSGSKSGTSASLAITGVQAEDEADYYCQSYDNGFTGARVFGTGTKVTVL
notes: scFv
B15: 43-G3 (scFv, V domains shown)
VH: QVQLVQSGGGVVQPGRSLRLSCAASGFTFSSYGMHWVRQAPGKGLEWVAFIRYDGSNKYYADSVKGRFTISRDNSKNTLYLQMKSLRAEDTAVYYCKTHGSHDNWGQGTMVTVSS
VL: SYVLTQPPSVSGTPGQRVTISCSGGRSNIGSNTVKWYQQLPGTAPKLLIYGNDQRPSGVPDRFSGSKSGTSASLAITGVQAEDEADYYCQSYDRGIWPNLNFGTGTKVTVL
notes: scFv

The assay deals with T1, human IL-12. In words: SPR (BIAcore), IL-12 chip. The text has this:
The system utilizes the optical properties of SPR to detect alterations in protein concentrations within a dextran biosensor matrix. Proteins are covalently bound to the dextran matrix at known concentrations. […] To determine the off rate (koff), on rate (kₒₙ), association rate (Ka) and dissociation rate (Kd) constants, BIAcore kinetic evaluation software (version 2.1) was used.
(In SPR one partner is held on a chip, and binding of the other changes the refractive index at the surface.)
For the molecule B1, the koff was 0.0005 s⁻¹.
The molecule B2 yielded a koff of 0.0029 s⁻¹.
B3: the koff was 0.0445 s⁻¹.
On to B4, for which the koff turned out to be 0.033 s⁻¹.
The same measure for B5: 0.00752 s⁻¹; for B6: 0.00976 s⁻¹; for B7: 0.072 s⁻¹.
B8 returned a koff of 0.0005 s⁻¹.
Take B9: the koff stood at 0.00058 s⁻¹.
On to B10, for which the koff was determined as 0.129 s⁻¹.
The molecule B11 registered a koff of 0.0007 s⁻¹.
In the case of B12 it was 0.00854 s⁻¹; in that of B13, 0.005 s⁻¹; in that of B14, 0.009 s⁻¹.
On to B15, for which the koff was found to be 0.0009 s⁻¹.

For the origin of these results see patent US20150037348A1 (AbbVie / Abbott, published 2015).
